In publication PMC3507856, “Two glutamic acid residues in the DNA-binding domain are engaged in the release of STAT1 dimers from DNA” (BMC Cell Biology, 2012):
Values joined by “and” are separate entries in the source; they are usually repeats but may differ in a detail not shown here. Equal entries are not always repeated.

T1: endogenous (native) STAT1 of HeLa cells (human (endogenous in HeLa)), P42224
T1 chain: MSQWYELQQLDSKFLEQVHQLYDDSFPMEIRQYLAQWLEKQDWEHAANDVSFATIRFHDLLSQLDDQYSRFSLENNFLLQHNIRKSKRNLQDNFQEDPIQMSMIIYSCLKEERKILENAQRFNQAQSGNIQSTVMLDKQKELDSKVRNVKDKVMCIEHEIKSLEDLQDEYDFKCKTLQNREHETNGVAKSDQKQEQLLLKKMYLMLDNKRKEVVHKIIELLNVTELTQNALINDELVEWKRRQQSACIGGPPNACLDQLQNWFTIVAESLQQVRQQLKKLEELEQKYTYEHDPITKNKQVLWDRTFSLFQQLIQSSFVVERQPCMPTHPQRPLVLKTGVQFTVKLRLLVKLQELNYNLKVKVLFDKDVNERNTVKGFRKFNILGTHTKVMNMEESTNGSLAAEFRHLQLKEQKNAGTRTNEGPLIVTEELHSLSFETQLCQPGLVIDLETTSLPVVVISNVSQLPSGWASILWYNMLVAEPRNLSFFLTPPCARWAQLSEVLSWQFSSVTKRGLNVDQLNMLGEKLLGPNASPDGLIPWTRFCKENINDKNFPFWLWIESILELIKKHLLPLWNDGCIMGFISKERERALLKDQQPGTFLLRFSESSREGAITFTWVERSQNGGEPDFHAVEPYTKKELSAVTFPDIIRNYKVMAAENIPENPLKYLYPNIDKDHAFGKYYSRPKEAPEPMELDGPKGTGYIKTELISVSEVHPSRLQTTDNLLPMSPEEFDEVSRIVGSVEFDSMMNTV


Legend:
[1] = biological target: the molecule itself; experiment: native gel or EMSA; whole cell lysates of HeLa cells (IFNγ 45 min, then staurosporine for the durations indicated) incubated in vitro with 32P-labelled M67 DNA (single high-affinity GAS site); STAT1 dimers seen as DNA-bound complexes on a 4% acrylamide gel at 4°C; homo- and heterodimers told apart by mobility
[2] = biological target: the molecule itself; experiment: native gel or EMSA; extracts of IFNγ-stimulated U3A cells incubated in vitro with 32P-labelled DNA containing a tandem GAS site; unchallenged or challenged for 30 min with a 750-fold molar excess of a single unlabelled GAS site (M67); dimeric and tetrameric STAT1 seen as DNA-bound complexes
[3] = biological target: T1, endogenous (native) STAT1 of HeLa cells …; experiment: native gel or EMSA; whole cell lysates of HeLa cells (IFNγ 45 min, then staurosporine for the durations indicated) incubated in vitro with 32P-labelled M67 DNA (single high-affinity GAS site); STAT1 dimers seen as DNA-bound complexes on a 4% acrylamide gel at 4°C; homo- and heterodimers told apart by mobility; conditions: remark: other sources report otherwise

| Binder | stoichiometry N [1] | stoichiometry N [2] | also measured |
| --- | --- | --- | --- |
| STAT1-WT-GFP (wild-type human STAT1 fused to green fluorescent protein) (natural protein, UniProt P42224 1-746, looked up, tyrosine-phosphorylated (phospho-Tyr701) after stimulation of cells with IFNγ, also called STAT1-GFP; GFP-tagged wild-type STAT1; source: HeLa cells, transfected (pEGFP-N1-STAT1), IFNγ-stimulated, in whole cell lysate; not shown: GFP, C-terminal, kept) MSQWYELQQLDSKFLEQVHQLYDDSFPMEIRQYLAQWLEKQDWEHAANDVSFATIRFHDLLSQLDDQYSRFSLENNFLLQHNIRKSKRNLQDNFQEDPIQMSMIIYSCLKEERKILENAQRFNQAQSGNIQSTVMLDKQKELDSKVRNVKDKVMCIEHEIKSLEDLQDEYDFKCKTLQNREHETNGVAKSDQKQEQLLLKKMYLMLDNKRKEVVHKIIELLNVTELTQNALINDELVEWKRRQQSACIGGPPNACLDQLQNWFTIVAESLQQVRQQLKKLEELEQKYTYEHDPITKNKQVLWDRTFSLFQQLIQSSFVVERQPCMPTHPQRPLVLKTGVQFTVKLRLLVKLQELNYNLKVKVLFDKDVNERNTVKGFRKFNILGTHTKVMNMEESTNGSLAAEFRHLQLKEQKNAGTRTNEGPLIVTEELHSLSFETQLCQPGLVIDLETTSLPVVVISNVSQLPSGWASILWYNMLVAEPRNLSFFLTPPCARWAQLSEVLSWQFSSVTKRGLNVDQLNMLGEKLLGPNASPDGLIPWTRFCKENINDKNFPFWLWIESILELIKKHLLPLWNDGCIMGFISKERERALLKDQQPGTFLLRFSESSREGAITFTWVERSQNGGEPDFHAVEPYTKKELSAVTFPDIIRNYKVMAAENIPENPLKYLYPNIDKDHAFGKYYSRPKEAPEPMELDGPKGTGYIKTELISVSEVHPSRLQTTDNLLPMSPEEFDEVSRIVGSVEFDSM | 2 |  |  |
| wild-type STAT1 expressed in STAT1-negative U3A cells (natural protein, human, UniProt P42224 1-746, looked up, tyrosine-phosphorylated after stimulation of cells with IFNγ, STAT1, human; also called STAT1-WT; source: U3A cells, transfected, IFNγ-stimulated, in cell extract) MSQWYELQQLDSKFLEQVHQLYDDSFPMEIRQYLAQWLEKQDWEHAANDVSFATIRFHDLLSQLDDQYSRFSLENNFLLQHNIRKSKRNLQDNFQEDPIQMSMIIYSCLKEERKILENAQRFNQAQSGNIQSTVMLDKQKELDSKVRNVKDKVMCIEHEIKSLEDLQDEYDFKCKTLQNREHETNGVAKSDQKQEQLLLKKMYLMLDNKRKEVVHKIIELLNVTELTQNALINDELVEWKRRQQSACIGGPPNACLDQLQNWFTIVAESLQQVRQQLKKLEELEQKYTYEHDPITKNKQVLWDRTFSLFQQLIQSSFVVERQPCMPTHPQRPLVLKTGVQFTVKLRLLVKLQELNYNLKVKVLFDKDVNERNTVKGFRKFNILGTHTKVMNMEESTNGSLAAEFRHLQLKEQKNAGTRTNEGPLIVTEELHSLSFETQLCQPGLVIDLETTSLPVVVISNVSQLPSGWASILWYNMLVAEPRNLSFFLTPPCARWAQLSEVLSWQFSSVTKRGLNVDQLNMLGEKLLGPNASPDGLIPWTRFCKENINDKNFPFWLWIESILELIKKHLLPLWNDGCIMGFISKERERALLKDQQPGTFLLRFSESSREGAITFTWVERSQNGGEPDFHAVEPYTKKELSAVTFPDIIRNYKVMAAENIPENPLKYLYPNIDKDHAFGKYYSRPKEAPEPMELDGPKGTGYIKTELISVSEVHPSRLQTTDNLLPMSPEEFDEVSRIVGSVEFDSM |  | 2 and 4 |  |
| STAT1-E411A expressed in STAT1-negative U3A cells (natural protein, human, UniProt P42224 1-746, looked up, tyrosine-phosphorylated after stimulation of cells with IFNγ, STAT1, human; glutamic acid 411 changed to alanine; also called E411A mutant; mutant STAT1; source: U3A cells, transfected, IFNγ-stimulated, in cell extract) MSQWYELQQLDSKFLEQVHQLYDDSFPMEIRQYLAQWLEKQDWEHAANDVSFATIRFHDLLSQLDDQYSRFSLENNFLLQHNIRKSKRNLQDNFQEDPIQMSMIIYSCLKEERKILENAQRFNQAQSGNIQSTVMLDKQKELDSKVRNVKDKVMCIEHEIKSLEDLQDEYDFKCKTLQNREHETNGVAKSDQKQEQLLLKKMYLMLDNKRKEVVHKIIELLNVTELTQNALINDELVEWKRRQQSACIGGPPNACLDQLQNWFTIVAESLQQVRQQLKKLEELEQKYTYEHDPITKNKQVLWDRTFSLFQQLIQSSFVVERQPCMPTHPQRPLVLKTGVQFTVKLRLLVKLQELNYNLKVKVLFDKDVNERNTVKGFRKFNILGTHTKVMNMEESTNGSLAAEFRHLQLKAQKNAGTRTNEGPLIVTEELHSLSFETQLCQPGLVIDLETTSLPVVVISNVSQLPSGWASILWYNMLVAEPRNLSFFLTPPCARWAQLSEVLSWQFSSVTKRGLNVDQLNMLGEKLLGPNASPDGLIPWTRFCKENINDKNFPFWLWIESILELIKKHLLPLWNDGCIMGFISKERERALLKDQQPGTFLLRFSESSREGAITFTWVERSQNGGEPDFHAVEPYTKKELSAVTFPDIIRNYKVMAAENIPENPLKYLYPNIDKDHAFGKYYSRPKEAPEPMELDGPKGTGYIKTELISVSEVHPSRLQTTDNLLPMSPEEFDEVSRIVGSVEFDSM |  | 2 and 4 |  |
| STAT1-E411A-GFP (natural protein, human, UniProt P42224 1-746, looked up, tyrosine-phosphorylated (phospho-Tyr701) after stimulation of cells with IFNγ, STAT1, human; also called E411 mutant; source: HeLa cells, transfected (pEGFP-N1-STAT1 with point mutation), IFNγ-stimulated, in whole cell lysate; not shown: GFP, C-terminal, kept) MSQWYELQQLDSKFLEQVHQLYDDSFPMEIRQYLAQWLEKQDWEHAANDVSFATIRFHDLLSQLDDQYSRFSLENNFLLQHNIRKSKRNLQDNFQEDPIQMSMIIYSCLKEERKILENAQRFNQAQSGNIQSTVMLDKQKELDSKVRNVKDKVMCIEHEIKSLEDLQDEYDFKCKTLQNREHETNGVAKSDQKQEQLLLKKMYLMLDNKRKEVVHKIIELLNVTELTQNALINDELVEWKRRQQSACIGGPPNACLDQLQNWFTIVAESLQQVRQQLKKLEELEQKYTYEHDPITKNKQVLWDRTFSLFQQLIQSSFVVERQPCMPTHPQRPLVLKTGVQFTVKLRLLVKLQELNYNLKVKVLFDKDVNERNTVKGFRKFNILGTHTKVMNMEESTNGSLAAEFRHLQLKAQKNAGTRTNEGPLIVTEELHSLSFETQLCQPGLVIDLETTSLPVVVISNVSQLPSGWASILWYNMLVAEPRNLSFFLTPPCARWAQLSEVLSWQFSSVTKRGLNVDQLNMLGEKLLGPNASPDGLIPWTRFCKENINDKNFPFWLWIESILELIKKHLLPLWNDGCIMGFISKERERALLKDQQPGTFLLRFSESSREGAITFTWVERSQNGGEPDFHAVEPYTKKELSAVTFPDIIRNYKVMAAENIPENPLKYLYPNIDKDHAFGKYYSRPKEAPEPMELDGPKGTGYIKTELISVSEVHPSRLQTTDNLLPMSPEEFDEVSRIVGSVEFDSM | 2 |  |  |
| endogenous (native) STAT1 of HeLa cells, P42224 1-750 (natural protein, here or on the partner: tyrosine-phosphorylated (phospho-Tyr701) after stimulation of cells with IFNγ; tyrosine-phosphorylated (phospho-Tyr701) after stimulation of cells with IFNγ) MSQWYELQQLDSKFLEQVHQLYDDSFPMEIRQYLAQWLEKQDWEHAANDVSFATIRFHDLLSQLDDQYSRFSLENNFLLQHNIRKSKRNLQDNFQEDPIQMSMIIYSCLKEERKILENAQRFNQAQSGNIQSTVMLDKQKELDSKVRNVKDKVMCIEHEIKSLEDLQDEYDFKCKTLQNREHETNGVAKSDQKQEQLLLKKMYLMLDNKRKEVVHKIIELLNVTELTQNALINDELVEWKRRQQSACIGGPPNACLDQLQNWFTIVAESLQQVRQQLKKLEELEQKYTYEHDPITKNKQVLWDRTFSLFQQLIQSSFVVERQPCMPTHPQRPLVLKTGVQFTVKLRLLVKLQELNYNLKVKVLFDKDVNERNTVKGFRKFNILGTHTKVMNMEESTNGSLAAEFRHLQLKEQKNAGTRTNEGPLIVTEELHSLSFETQLCQPGLVIDLETTSLPVVVISNVSQLPSGWASILWYNMLVAEPRNLSFFLTPPCARWAQLSEVLSWQFSSVTKRGLNVDQLNMLGEKLLGPNASPDGLIPWTRFCKENINDKNFPFWLWIESILELIKKHLLPLWNDGCIMGFISKERERALLKDQQPGTFLLRFSESSREGAITFTWVERSQNGGEPDFHAVEPYTKKELSAVTFPDIIRNYKVMAAENIPENPLKYLYPNIDKDHAFGKYYSRPKEAPEPMELDGPKGTGYIKTELISVSEVHPSRLQTTDNLLPMSPEEFDEVSRIVGSVEFDSMMNTV |  |  | stoichiometry N [3]: 2 |
